Where a chain is given by its changes, count along the chain named. In names and notes the source's numbering stands.
B1: WoA-S121 (Wolinella succinogenes L-asparaginase) (Wolinella succinogenes DSM 1740) (protein)
chain: MAKPQVTILATGGTIAGSGESSVKSSYSAGAVTVDKLLAAVPAINDLATIKGEQISSIGSQEMTGKVWLKLAKRVNELLAQKETEAVIITHGTDTMEETAFFLNLTVKSQKPVVLVGAMRSGSSMSADGPMNLYNAVNVAINKASTNKGVVIVMNDEIHAAREATKLNTTAVNAFASPNTGKIGTVYYGKVEYFTQSVRPHTLASEFDISKIEELPRVDILYAHPDDTDVLVNAALQAGAKGIIHAGMGNGNPFPLTQNALEKAAKSGVVVARSSRVGSGSTTQEAEVDDKKLGFVATESLNPQKARVLLMLALTKTSDREAIQKIFSTY
notes: recombinant, pET28 vector, E. coli BL21-AI; 330 residues per protomer; tetramer (dimer of dimers)
B2: WoA-S121 (Wolinella succinogenes L-asparaginase) (Wolinella succinogenes DSM 1740; S121P) (protein)
chain: B1 chain with S121P
notes: as for B1

Key:
Assay in all cases: purified protein
Details in all cases: 37 °C
[1] = substrate: NC(=O)C[C@H](N)C(=O)O; type: biochemical, Wolinella succinogenes
[2] = substrate: NC(=O)CC[C@H](N)C(=O)O
[3] = substrate: NC(=O)CC[C@H](N)C(=O)O; type: biochemical, Wolinella succinogenes

Protein | Km [1] [µM] | kcat [1] [s⁻¹] | kcat/Km [1] [M⁻¹ s⁻¹] | Km [2] [µM] | kcat [2] [s⁻¹] | kcat/Km [2] [M⁻¹ s⁻¹] | Km [3] [µM] | kcat [3] [s⁻¹] | kcat/Km [3] [M⁻¹ s⁻¹]
B1 | 21.7 ± 1.2 | 97.8 ± 1 | 4.5e+06 ± 250000 | 380 ± 50 | 1.58 | 4200 | – | – | –
B2 | 23.6 ± 1.1 | 86.7 ± 0.8 | 3.7e+06 ± 170000 | – | – | – | 320 ± 20 | 11.33 ± 0.11 | 35300 ± 2240
